Measurements reported in patent US20120076787A1 (published 2012).

T1: Recombinant human B7-1 Fc Chimera (RnD Systems, 140-B1-100), biotinylated (human, UniProt P33681 35-242, biotinylated (ECL biotinylation module, GE Healthcare, at a quarter of the kit recommended level))
T1 construct: Bought reagent; also called biotinylated B7-1; Fc part of the bought chimera not given
T1 sequence (looked up): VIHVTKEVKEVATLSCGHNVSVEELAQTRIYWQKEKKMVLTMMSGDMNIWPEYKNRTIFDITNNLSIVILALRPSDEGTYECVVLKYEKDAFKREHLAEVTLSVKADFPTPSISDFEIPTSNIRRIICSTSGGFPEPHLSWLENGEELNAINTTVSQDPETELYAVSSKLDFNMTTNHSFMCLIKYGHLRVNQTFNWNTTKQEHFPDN


Columns and labels:
[1] = biological target: T2, human TNFα (human, UniProt P01375 77-233); test: assay not stated (description of the dAb in Example 11)
T2 construct: also called TNF ligand; TNFα (Peprotech)
T2 sequence (P01375 77-233 limits assumed): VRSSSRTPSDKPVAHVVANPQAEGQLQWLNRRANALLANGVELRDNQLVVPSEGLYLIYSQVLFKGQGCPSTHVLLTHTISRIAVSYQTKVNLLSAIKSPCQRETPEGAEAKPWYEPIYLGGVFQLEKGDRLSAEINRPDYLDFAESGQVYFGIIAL

[2] = biological target: T1, Recombinant human B7-1 Fc Chimera (RnD …); test: bridging ELISA: coated VEGFR2 Fc, titrated control, detection with biotinylated B7-1 Fc and ExtrAvidin peroxidase

| Kd [1] | binding result [2] | Binder |
| --- | --- | --- |
| ~8 nM | – | PEP1-5-19 (anti-TNFα dAb) (other, Vk domain antibody (dAb), monomer; also called Anti-TNFα Vk dAb (PEP1-5-19)) VL: DIQMTQSPSSLSASVGDRVTITCRASQSIDSYLHWYQQKPGKAPKLLIYSASELQSGVPSRFSGSGSGTDFTLTISSLQPEDFATYYCQQVVWRPFTFGQGTKVEIKR |
| – | no binding | BPC1801 (bispecific IGF1R-VEGFR2 antigen binding construct) (bispecific antibody, human IgG1, kappa, Negative control of the VEGFR2/B7-1 bridging ELISA) heavy: not shown light: DIVMTQSPLSLPVTPGEPASISCRSSQSIVQSNGDTYLEWYLQKPGQSPQLLIYRVSNRFSGVPDRFSGSGSGTDFTLKISRVEAEDVGVYYCFQGSHVPYTFGQGTKLEIKRTVAAPSVFIFPPSDEQLKSGTASVVCLLNNFYPREAKVQWKVDNALQSGNSQESVTEQDSKDSTYSLSSTLTLSKADYEKHKVYACEVTHQGLSSPVTKSFNRGEC |
